Test results: patent US20220282217A1 (BIONTECH US, published 2022)

What was measured:
[1] = molecular target: T1, HLA class I molecule B07.02; test: competition with radiolabeled reference peptide on purified MHC I
T1 construct: Purified MHC class I complex; also called HLA-B07:02
Description: (§1) Peptides were incubated at varying concentrations with these complexes for 2 days, and the amount of remaining radiolabeled peptide bound to […] was measured using size exclusion gel-filtration.

[2] = molecular target: T1, HLA class I molecule B07.02; test: pMHC-I dissociation assay with 125I-labeled beta2m light chain at 37 C, scintillation counts; time in hours for half of the complexes to dissociate
Description: (§2) Briefly, synthetic genes encoding biotinylated MHC-I heavy and light chains are expressed in E. coli and purified from inclusion bodies using standard methods. […] These reactions are carried out in streptavidin coated microplates to bind the biotinylated MHC-I heavy chains to the surface and allow measurement of radiolabeled light chain to monitor complex formation. Dissociation is initiated by addition of higher concentrations of unlabeled light-chain and incubation at 37° C. Stability is defined as the length of time in hours it takes for half of the complexes to dissociate, as measured by scintillation counts.

[3] = molecular target: T2, HLA class I molecule B08.01; test: as above
T2 construct: Purified MHC class I complex; also called HLA-B08:01
Description: as §2

[4] = molecular target: T3, HLA class I molecule A02.01; test: competition with radiolabeled reference peptide on purified MHC I
T3 construct: Purified MHC class I complex; also called HLA-A02:01
Description: as §1

[5] = molecular target: T3, HLA class I molecule A02.01; test: pMHC-I dissociation assay with 125I-labeled beta2m light chain at 37 C, scintillation counts; time in hours for half of the complexes to dissociate
Description: as §2

[6] = molecular target: T4, HLA class I molecule A03.01; test: competition with radiolabeled reference peptide on purified MHC I
T4 construct: Purified MHC class I complex; also called HLA-A03:01
Description: as §1

[7] = molecular target: T4, HLA class I molecule A03.01; test: pMHC-I dissociation assay with 125I-labeled beta2m light chain at 37 C, scintillation counts; time in hours for half of the complexes to dissociate
Description: as §2

[8] = molecular target: HLA-A02.01 (human); test: pMHC-I complex dissociation at 37 C, 125I-b2m, half-life
Procedure, shortened: (§3)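 Biotinylated MHC-I heavy chain made in E. coli, captured on streptavidin plates and complexed with peptide and radiolabelled light chain. Dissociation started with excess unlabelled light chain at 37 °C. Stability is the half-life in hours from scintillation counts.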

[9] = molecular target: T5, HLA-B08.01 (human); test: as above
T5 construct: As for HLA-A02.01
Procedure, shortened: as §3

[10] = molecular target: HLA-A02.01 (human); test: competition vs radiolabeled reference peptide on purified MHC I, gel filtration
Description: as §1

[11] = molecular target: T5, HLA-B08.01; test: as above
Description: as §1

[12] = molecular target: HLA-A*30:02 (human); test: peptides eluted from HLA-peptide complexes by acid wash, targeted MS/MS (PRM); 293T cells transduced with GATA3 neoORF, expressing HLA-A*30:02
Description: (§4) Between 50 and 700 million of the transduced cells expressing peptides encoded by the GATA3 neoORF sequence were cultured and peptides were eluted from HLA-peptide complexes using an acid wash. Eluted peptides were then analyzed by targeted MS/MS using PRM.

[13] = molecular target: T6, HLA-A03.01 (human); test: competition vs radiolabeled reference peptide on purified MHC I, gel filtration
T6 construct: As for HLA-A02.01
Description: as §1

[14] = molecular target: T7, HLA-A01.01 (human); test: as above
T7 construct: As for HLA-A02.01
Description: as §1

[15] = molecular target: HLA-B*40:02 (human); test: peptides eluted from HLA-peptide complexes by acid wash, targeted MS/MS (PRM); 293T cells transduced with GATA3 neoORF, expressing HLA-B*40:02
Description: as §4

[16] = molecular target: T8, HLA-B07.02 (human); test: competition vs radiolabeled reference peptide on purified MHC I, gel filtration
T8 construct: As for HLA-A02.01
Description: as §1

[17] = molecular target: T9, HLA-A24.02 (human); test: pMHC-I complex dissociation at 37 C, 125I-b2m, half-life
T9 construct: As for HLA-A02.01
Procedure, shortened: as §3

[18] = molecular target: T9, HLA-A24.02; test: competition vs radiolabeled reference peptide on purified MHC I, gel filtration
Description: as §1

[19] = molecular target: T10, HLA-A03.01 (human); test: competition with radiolabeled reference peptide, purified MHC I
T10 construct: Purified class I MHC
Description: as §1

[20] = molecular target: T11, HLA-A11.01 (human); test: as above
T11 construct: Purified class I MHC
Description: as §1

[21] = molecular target: T12, HLA-A02.01 (human); test: pMHC-I dissociation half-life, 125I-b2m
T12 construct: Purified class I MHC
Procedure, shortened: as §3

[22] = molecular target: T10, HLA-A03.01; test: pMHC-I dissociation half-life, 125I-b2m
Procedure, shortened: as §3

[23] = molecular target: T13, HLA-B07.02 (human); test: pMHC-I dissociation half-life, 125I-b2m
T13 construct: Purified class I MHC
Procedure, shortened: as §3

[24] = molecular target: T14, HLA-B08.01 (human); test: pMHC-I dissociation half-life, 125I-b2m
T14 construct: Purified class I MHC
Procedure, shortened: as §3

[25] = molecular target: T13, HLA-B07.02; test: competition with radiolabeled reference peptide, purified MHC I
Description: as §1

[26] = molecular target: T11, HLA-A11.01; test: pMHC-I dissociation half-life, 125I-b2m
Procedure, shortened: as §3

[27] = molecular target: HLA-B08.01 class I MHC molecule (prepared complex) (human); test: dissociation of peptide-MHC-I complex at 37 C, 125I-labelled b2m, scintillation
Description: as §2

B1: FATLQRSSL (peptide)
peptide: FATLQRSSL
notes: also called GATA3 . . ; CSNH
[1]
  IC50: 14 nM
[2]
  Observed MHC Stability: 0.7 h
[3]
  Observed MHC Stability: 0 h

B2: KPKRDGYMF (peptide)
peptide: KPKRDGYMF
notes: also called GATA3 . . ; CSNH
[1]
  IC50: 28.2 nM
[2]
  Observed MHC Stability: 8.6 h

B3: KPKRDGYMFL (peptide)
peptide: KPKRDGYMFL
notes: also called GATA3 . . ; CSNH
[1]
  IC50: 98.1 nM
[2]
  Observed MHC Stability: 3.3 h

B4: GPPARVPAV (peptide)
peptide: GPPARVPAV
notes: also called GATA3 . . ; CSNH
[1]
  IC50: 221 nM
[2]
  Observed MHC Stability: 1.6 h

B5: MFATLQRSSL (peptide)
peptide: MFATLQRSSL
notes: also called GATA3 . . ; CSNH
[1]
  IC50: 267 nM
[2]
  Observed MHC Stability: 0 h
[3]
  Observed MHC Stability: 0 h

B6: MLTGPPARV (peptide)
peptide: MLTGPPARV
notes: also called GATA3 . . ; CSNH
[4]
  IC50: 10.6 nM
[5]
  Observed MHC Stability: 5.8 h

B7: TLQRSSLWCL (peptide)
peptide: TLQRSSLWCL
notes: also called GATA3 . . ; CSNH
[4]
  IC50: 118 nM
[5]
  Observed MHC Stability: 0.5 h

B8: YMFLKAESK (peptide)
peptide: YMFLKAESK
notes: also called GATA3 . . ; CSNH
[6]
  IC50: 79.8 nM
[7]
  Observed MHC Stability: 0.3 h

B9: LATEKSRWSG (peptide)
peptide: LATEKSRWSG
notes: also called BRAF, V600E
[8]
  Stability (T1/2 (h)): 0 h
[9]
  Stability (T1/2 (h)): 0 h
[10]
  IC50: 23300 nM
[11]
  IC50: 46600 nM

B10: LATEKSRWS (peptide)
peptide: LATEKSRWS
notes: also called BRAF, V600E
[8]
  Stability (T1/2 (h)): 0 h
[9]
  Stability (T1/2 (h)): 0 h
[10]
  IC50: 61000 nM
[11]
  IC50: 37000 nM

B11: GATA3 neoORF peptide IMKPKRDGY (peptide)
peptide: IMKPKRDGY
[12]
  binding result: binds

B12: YMANGSLLNY (peptide)
peptide: YMANGSLLNY
notes: also called BTK, C481S
[13]
  IC50: 95.9 nM
[14]
  IC50: 13.2 nM

B13: GATA3 neoORF peptide SIMKPKRDGY (peptide)
peptide: SIMKPKRDGY
[12]
  binding result: binds

B14: LSFLSSWDY (peptide)
peptide: LSFLSSWDY
notes: also called C15ORF40(+1)
[14]
  IC50: 52.9 nM

B15: CLSFLSSWDY (peptide)
peptide: CLSFLSSWDY
notes: also called C15ORF40(+1)
[13]
  IC50: 2710 nM
[14]
  IC50: 987 nM

B16: MSVCFFFFCY (peptide)
peptide: MSVCFFFFCY
notes: also called CNOT1(-1)
[14]
  IC50: 4370 nM

B17: GATA3 neoORF peptide AESKIMFATL (peptide)
peptide: AESKIMFATL
[15]
  binding result: binds

B18: GATA3 neoORF peptide AESKIMFAT (peptide)
peptide: AESKIMFAT
[15]
  binding result: binds

B19: VPLYGLLLEM (peptide)
peptide: VPLYGLLLEM
notes: also called ESR1, D538G
[16]
  IC50: 27.9 nM

B20: FLPSTLKSL (peptide)
peptide: FLPSTLKSL
notes: also called ESR1, S463P
[9]
  Stability (T1/2 (h)): 0 h
[11]
  IC50: 1970 nM

B21: VVPLSDLLL (peptide)
peptide: VVPLSDLLL
notes: also called ESR1, Y537S
[17]
  Stability (T1/2 (h)): 0.5 h
[8]
  Stability (T1/2 (h)): 0 h
[18]
  IC50: 8250 nM
[10]
  IC50: 2550 nM

B22: WLHKRGKYI (peptide)
peptide: WLHKRGKYI
notes: also called AKT1, E17K
[9]
  Stability (T1/2 (h)): 1.3 h
[11]
  IC50: 417 nM

B23: KISNWSLKK (peptide)
peptide: KISNWSLKK
notes: also called SMAP1(-1)
[19]
  IC50: 8.8 nM
[20]
  IC50: 9.8 nM

B24: SLKKVPALK (peptide)
peptide: SLKKVPALK
notes: also called SMAP1(-1)
[19]
  IC50: 4.4 nM
[20]
  IC50: 129 nM

B25: RLSSCVPVA (peptide)
peptide: RLSSCVPVA
notes: also called TGFBR2(-1)
[21]
  Stability (T1/2 (h)): 18.7 h
[22]
  Stability (T1/2 (h)): 0 h

B26: AMTTSSSQK (peptide)
peptide: AMTTSSSQK
notes: also called TGFBR2(-1)
[19]
  IC50: 8.3 nM
[20]
  IC50: 162 nM

B27: SAMTTSSSQK (peptide)
peptide: SAMTTSSSQK
notes: also called TGFBR2(-1)
[19]
  IC50: 15.7 nM
[20]
  IC50: 15.8 nM

B28: LPSQRRNHWM (peptide)
peptide: LPSQRRNHWM
notes: also called TP53, CSES
[23]
  Stability (T1/2 (h)): 6.5 h
[24]
  Stability (T1/2 (h)): 0.7 h
[25]
  IC50: 10 nM

B29: LPRKPTRAAT (peptide)
peptide: LPRKPTRAAT
notes: also called TP53, QPSL
[23]
  Stability (T1/2 (h)): 3.7 h
[25]
  IC50: 3 nM

B30: KPTRAATVSV (peptide)
peptide: KPTRAATVSV
notes: also called TP53, QPSL
[23]
  Stability (T1/2 (h)): 3 h
[25]
  IC50: 8 nM

B31: HPRPAPASA (peptide)
peptide: HPRPAPASA
notes: also called TP53, SHST
[23]
  Stability (T1/2 (h)): 4.9 h
[24]
  Stability (T1/2 (h)): 0 h
[25]
  IC50: 11 nM

B32: VVGACGVGK (peptide)
peptide: VVGACGVGK
notes: also called KRAS, G12C
[22]
  Measured stability: 5 h
[26]
  Measured stability: 10 h

B33: VVGADGVGK (peptide)
peptide: VVGADGVGK
notes: also called KRAS, G12D
[26]
  Measured stability: 3.4 h

B34: VVVGADGVGK (peptide)
peptide: VVVGADGVGK
notes: also called KRAS, G12D
[22]
  Measured stability: 2.3 h
[26]
  Measured stability: 13 h

B35: VVVGAVGVGK (peptide)
peptide: VVVGAVGVGK
notes: also called KRAS, G12V
[22]
  Measured stability: 6.7 h
[26]
  Measured stability: 24.3 h

B36: YPAYSKDSGL (peptide)
peptide: YPAYSKDSGL
notes: also called β2M, . . ; SIRH
[16]
  IC50: 79.5 nM

B37: EGFR_T790M peptide QLIMQLMPF (peptide)
peptide: QLIMQLMPF
notes: synthetic peptide holding the EGFR T790M mutation
[27]
  Stability (half-life (hr.)): 0 h

B38: EGFR_T790M peptide IMQLMPFGCL (peptide)
peptide: IMQLMPFGCL
notes: as for B37
[27]
  Stability (half-life (hr.)): 0 h

B39: EGFR_T790M peptide MQLMPFGCL (peptide)
peptide: MQLMPFGCL
notes: as for B37
[27]
  Stability (half-life (hr.)): 0 h

B40: EGFR_T790M peptide MQLMPFGCLL (peptide)
peptide: MQLMPFGCLL
notes: as for B37
[27]
  Stability (half-life (hr.)): 0 h

B41: EGFR_T790M peptide VQLIMQLMPF (peptide)
peptide: VQLIMQLMPF
notes: as for B37
[27]
  Stability (half-life (hr.)): 0 h
